Test results: patent publication US20210033615

Target: T1, F-box protein 28 (FBXO28)
T1 chain: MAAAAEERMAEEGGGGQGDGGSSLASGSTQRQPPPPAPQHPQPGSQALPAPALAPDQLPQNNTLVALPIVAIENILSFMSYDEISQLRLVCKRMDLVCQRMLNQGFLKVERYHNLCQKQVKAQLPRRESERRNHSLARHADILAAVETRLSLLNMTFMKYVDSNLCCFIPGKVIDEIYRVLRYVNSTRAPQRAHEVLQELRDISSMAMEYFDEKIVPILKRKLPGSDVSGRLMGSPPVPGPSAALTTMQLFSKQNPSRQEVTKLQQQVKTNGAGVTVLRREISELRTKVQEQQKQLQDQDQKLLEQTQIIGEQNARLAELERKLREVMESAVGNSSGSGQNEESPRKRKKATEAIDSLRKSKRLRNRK

B1: 6-phosphofructo-2-kinase/fructose-2,6-biphosphatase 4 (PFKFB4) (protein)
chain: MASPRELTQNPLKKIWMPYSNGRPALHACQRGVCMTNCPTLIVMVGLPARGKTYISKKLTRYLNWIGVPTREFNVGQYRRDVVKTYKSFEFFLPDNEEGLKIRKQCALAALRDVRRFLSEEGGHVAVFDATNTTRERRATIFNFGEQNGYKTFFVESICVDPEVIAANIVQVKLGSPDYVNRDSDEATEDFMRRIECYENSYESLDEDLDRDLSYIKIMDVGQSYVVNRVADHIQSRIVYYLMNIHVTPRSIYLCRHGESELNLKGRIGGDPGLSPRGREFAKSLAQFISDQNIKDLKVWTSQMKRTIQTAEALGVPYEQWKVLNEIDAGVCEEMTYEEIQDNYPLEFALRDQDKYRYRYPKGESYEDLVQRLEPVIMELERQENVLVICHQAVMRCLLAYFLDKAAEQLPYLKCPLHTVLKLTPVAYGCKVESIFLNVAAVNTHRDRPQNVDISRPPEEALVTVPAHQ
HIF1a protein level (Western blot) after knockdown in GSCs: silencing of both FBXO28 and PFKFB4 in the GSCs rescued the level of HIF1a
ubiquitylation of HIF1a (ubiquitin immunoblot on immunoprecipitated HIF1a upon MG132 treatment): the ubiquitylation of HIF1a is decreased in cells overexpressing PFKFB4
